The record followed here is patent publication US20240150475A1 (Molecular Partners, published 2024).

In assay [1] the target is T1, biotinylated extracellular domains of human CD123 with C-terminal Fc tag and Avi tag (bio.hCD123-Fc(kih)-Avi) (human, UniProt P26951 19-303, biotinylated with BirA-GST (Avi tag)).
T1 construct: Bought from Evitria; the second Fc chain and the number of CD123 arms are not described; also called biotinylated hCD123; recombinant human CD123 target; not shown: Avi tag
T1 sequence: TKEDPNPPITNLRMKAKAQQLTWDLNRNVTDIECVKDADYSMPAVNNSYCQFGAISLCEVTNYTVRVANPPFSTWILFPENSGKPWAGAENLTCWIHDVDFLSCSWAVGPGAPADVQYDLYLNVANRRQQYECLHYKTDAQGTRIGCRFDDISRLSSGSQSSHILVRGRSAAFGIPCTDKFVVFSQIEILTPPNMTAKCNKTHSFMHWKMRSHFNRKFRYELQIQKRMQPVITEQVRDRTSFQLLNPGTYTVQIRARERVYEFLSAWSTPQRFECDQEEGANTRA
The experiment in a line: HTRF, full-length biotinylated hCD123-Fc(kih)-Avi. The source says: (§1) The CD123 epitope bound by CD123-specific ankyrin repeat proteins of the invention was investigated using truncated CD123 target protein as well as competition ELISA and HTRF against the benchmark control molecule flotetuzumab-similar (CD3-CD123 specific DART®, purchased from Evitria) and the natural ligand IL-3 (purchased by Peprotech), First, full-length (NTD/D2/D3 domains) and truncated (D2/D3 domains) CD123 targets (purchased from Evitria) were applied in an HTRF binding assay in which they were incubated with DARPin® protein #1 and binding was detected by using either the HTRF reagents Anti 6His-d2 and Streptavidin-Tb for full-length CD123 or hIgG-d2 and anti-His-Tb for truncated CD123. […] The excitation of the reaction was measured at 340 nm and emission at 665 nm and the background at 340 nM and 620 nM respectively. […] Binding was detected by using either the HTRF reagents Anti 6His-d2 and Streptavidin-Tb for full-length CD123 or hIgG-d2 and anti-His-Tb for truncated CD123 target.
For orientation: TR-FRET usually uses a lanthanide donor and a delayed reading to cut background.

Assay [2] addresses T2, truncated CD123 target (D2/D3 domains), D2-D3-hCD123 (human, UniProt P26951 101-305).
T2 construct: domain: D2/D3; Bought from Evitria; Detected with hIgG-d2, so it probably carries an Fc tag; also called truncated target (D2-D3-hCD123)
T2 sequence (looked up): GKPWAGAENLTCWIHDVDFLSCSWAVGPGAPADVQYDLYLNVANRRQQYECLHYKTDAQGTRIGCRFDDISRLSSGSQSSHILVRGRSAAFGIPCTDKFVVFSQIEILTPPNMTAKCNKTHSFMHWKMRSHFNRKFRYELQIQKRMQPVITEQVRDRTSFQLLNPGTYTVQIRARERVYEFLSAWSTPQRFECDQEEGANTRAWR
The assay is described as follows: HTRF, purified DARPin protein with truncated D2-D3-hCD123, hIgG-d2 and anti-His-Tb.
From the text: as §1

B1: DARPin® protein #20 (non-binding DARPin molecule) (designed binder)
chain: DLGKKLLEAARAGQDDEVRELLKAGADVNAKDKDGYTPLHLAAREGHLEIVEVLLKAGADVNAKDKDGYTPLHLAAREGHLEIVEVLLKAGADVNAQDKSGKTPADLAADAGHEDIAEVLQKAA
notes: Control
Consider B1, for which the binding result in assay [1] and in assay [2] was “no binding” each time.
